This data set in a line: yeast display, Sf9 membrane polyspecificity reagent, FACS + sequencing; frameworks hold sequencing errors. An outline of the steps:
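In a synthetic yeast display library (Saccharomyces cerevisiae BJ5465), nanobody expression was induced with galactose for 36–48 hours. FACS gates were set low and high (top ~1%) using anti-HA fluorescence for expression and streptavidin fluorescence for binding of the Sf9 membrane reagent. Each polyreactivity label is drawn from the gate of origin.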
As to “QVQLVESGGGLVQAGGSLRLSCAASGSTFSSLIMGWYRQAPGKERELVAAISRSGGRTYYADSVKGRFTISRDNAKNTVYLQMNSLIPEDTAVYYCAADYVSVDRIRYGYCGQGTQVTVSS”, the “polyreactivity (PSR sort gate)” value is reported as “high polyreactivity”.

Take “QVHLVESGGGLVQAGGSLRLSCAASGNTLRVYTKGWYRQAPWKERELVAAISRRGSRTYYADTVKGRFTISRENAKYTVYLQMNSLKPEDTAVYYCAAGIPYPDDYWGQGTQVTVSS”: the “polyreactivity (PSR sort gate)” value is “high polyreactivity”.

Turning to “QVQLVESGGGLVQAGGSLRLSCAASGFIFDIYAMGWYRQAPGKERELVASINWSGGDSTSYADSVKGRFTISRVNAKNTVSLQMNILKPEDTAVYYCIAEYWYYAGGYPDEYDYWGQGPQVTVSS”, the “polyreactivity (PSR sort gate)” value is recorded as “low polyreactivity”.

On to “QVQLVESGGGLVQAGGSLRLSCAASGSTLSDYAMGWYRQAPGKERELVAAISTSGGRTYYADSVKGRFTISRDNAKNTVYLQMNSLKPEDTAVYYCAVDHYSSYEYWGQGTQVSVSS”, for which the “polyreactivity (PSR sort gate)” value is on record as “low polyreactivity”.

Consider “QLQLQESGGGLVQSGGSLRLSCAASGTISFTRDMGWYRQAPGKEREFVASIDRGASTYYADSVKGRFTISRDNAKNTVYLQMNSLKPEDTAVYYRAFIAPFYSSFAYWGQGTQVTVSS”, for which the “polyreactivity (PSR sort gate)” value is given as “high polyreactivity”.

On to “QVQLVESGGGLVQAGGSLRLSCAASGSTFWFYAMGWYRQAPGKERELVAAITSSGSSTYYADSVKGRFTISRDNAKNTVYLQMNCLKPEDTAVYYCAADDSNDSPSLYYVAYNYWGQGTQVTVSS”, for which the “polyreactivity (PSR sort gate)” value is reported as “low polyreactivity”.

Turning to “QVQLVESGGGLVQAGGSLRLSCAASGRTFNGYAMGWYRQAPGKERELVAGISWRGTSTYYADSVKGRFTISRDNAKNTVYLQMNSLKPEDTAVYYCAADVWRVQHRGYNYWGQGTQVTVSS”, the “polyreactivity (PSR sort gate)” value is on record as “high polyreactivity”.

As to “QVQLVESGGGLVQAGGSLRLSCAASGSTFGPYAMGWYRQAPGKERELVAGISYGGGTTFYADSVKGRFTISRDNAKNTVYLQMNSLKPEDTAVYYCAATYRPNRYLEGYWGQGTQVTVSS”, the “polyreactivity (PSR sort gate)” value is “high polyreactivity”.

On to “QVQLVESGGGLVQAGGSLRLSCAASGLTFEDNDMGWYRQAPGKERELVAAISSAGSTSYADSVKGRFTISRDNAKNTVYLQRNSLKPDDTAVYYCAKDNSPSYTPAQLDGGDDYWGQGTQVTVSS”, for which the “polyreactivity (PSR sort gate)” value was “low polyreactivity”.

Take “QVQLVESGGGLVQAGGSLRLSCAASGSTFSGNAMGWDRQAPGKESELVAAINSVRTYYADSVKGRFTISRDNAKNTVYLQMNSLKQEDTAVYYCNAEGYVSLSQYGVRRHSDYWGQGTQVNVSS”: the “polyreactivity (PSR sort gate)” value was “high polyreactivity”.

With “QVQLVESGAGLFQAGGRLRLSCAASGRTFQVYAMAWYRHAPGTERELVAAIDLGGGSTYYADSVKGRFTISRDNAKNTVYLQMNSLKQEDTAVYYCAADVGLRFDYWGQGTQVTVSS”, the “polyreactivity (PSR sort gate)” value is reported as “high polyreactivity”.

Take “QVQLLESGGGLVQSGGSLRVSCAASGRNFGRYDMGWYRQAPGKERELVATISSRGGNTYYADSVKGRVTISRDNAMNTVYLQMNSLTPDDTAVYYCAAQTYKWYDWGQGTQVTVSS”: the “polyreactivity (PSR sort gate)” value was “high polyreactivity”.

With “QVQLVESGGGLVQAGGSLRISCAASGSTFSDYDMVWYRQAPGKERELVAAISKRGGSTDYADSVKGRFTFSRDNAKITVYLQMNSLKPEDTAVYYCAKDGTHGYDYWGQGTQVTVSS”, the “polyreactivity (PSR sort gate)” value was “low polyreactivity”.

For the sequence “QVQLVESGGGLVQAGGSLRLSCAASGSTFARNAMGWYRQAPGKERELVAAISSSGGRTYYADSVKGRFTISRDNAKNTVYLQMNSLKPEDTAVYSCAARTFGSVHSYRGGYWGQGTQVTVSS”, the “polyreactivity (PSR sort gate)” value is reported as “high polyreactivity”.

For the sequence “QVQLVESGGGLVQARGSLRLICAASGSTFWYYAKGWYRQAPGKERELVAAITSGDSTYYADSVKGRFTISRDNAKNTVYLQMNSLKPEDTAVYYCAADLPWEDGYYYYSGYTEYDYWGQGTQVTVSS”, the “polyreactivity (PSR sort gate)” value is listed as “low polyreactivity”.

Take “QVQLVQSGGGLVQAGGSLRLSCAASGGIFRTNPMGWYRQAPGQERALVATISRRGGSTYYADSVKGRFTISRDNAKNTVYFQMNSLKPEDTAVYYCAVEWYYTSNHIRFYRDNYWGQGTQVTVSS”: the “polyreactivity (PSR sort gate)” value was “high polyreactivity”.

Regarding “QVQLVESGGGLVQAGGSLRLSCAASGYTFPYYTMGWYRQAPGKERELVAAISSGGRTKYADSVKGRFTISRDNAKNTVYLQMNSMKPEDTAVYYCNAVHSPAQCRSKYYPYNYWGQGTQVTVSS”, the “polyreactivity (PSR sort gate)” value is reported as “high polyreactivity”.

Take “QDQLVASGGGLVQAGGSSRLSCAASGRTFWSNAMGWYRQAPGKERELVAVITSSGGRTYYADSVKGRFTISRDNAKNTVYLQMNSLKPEDTAVYYCNVVCSPSLGVRTKYGYWGQGTHVTVSS”: the “polyreactivity (PSR sort gate)” value is on record as “high polyreactivity”.

For “QVQLVESGGGLVQAGGSRSLSCAASGSILWYYAMGWYRQAPGKERELVADITARGVGTYYADSVKGRFTISRDNAKNTVYLQMNSLKPEDTAVYYCNVETYSFYTLYVTYDYWGQGTQVTVSS”, the “polyreactivity (PSR sort gate)” value is reported as “low polyreactivity”.

“QVQLVESGGGLVQAGGSLRLSCAASGRIFVVNAMGWYRQAPGKERELVAAISSSSDSTYYADSVKGRFTISRDNAKNTVYLQMNSLKPEDTAVFYCAADYHYDGYWIYDYWGQGTQVTVSS”: the “polyreactivity (PSR sort gate)” value was “high polyreactivity”.

For the sequence “QVQLVESGGGLVQAGGSHRLSCAASGLTFRRNAMGWYRQAPGKERELVAAISGSGGSTYYADSVKGRFTISRDNAKNTVYLQMNSLKPEDTAVYYCAADDGIVAYGYWGQGTQVTVSS”, the “polyreactivity (PSR sort gate)” value was “high polyreactivity”.

As for “QVQLVESGGGLVQAGGSLRLSCAASGRIFSINALGWYRQAPGKEREFVATISDRGSTTSYADSVKGRFTISRDNAKNTVYLQMNSLKPEDTAVYYCAARSYYRYDYWGQGTQVTVSS”, the “polyreactivity (PSR sort gate)” value is “high polyreactivity”.

On to “QVQLVESGGGLVQAGGSLRLSCAASGSTFTAYAMGWYRQAPGKERELVAAITSSGGGTYYADSVKGRFTISRDNAKNPVYLQMNSLKPEDTAVYYCAAVPGYGYYNYSDFDYWGQGTQVTVSS”, for which the “polyreactivity (PSR sort gate)” value is “low polyreactivity”.

For “QVQLVESGGGLVQAGGSLRLSCAASGRIFGHYVMGWYRQAPRKERELDAAITRGDSTYYADSVKGRFTISRDNAKNTVYLEMNSLKPEDTAVYYCAARVWRVDARDRYYWGQGTQVTVSS”, the “polyreactivity (PSR sort gate)” value is recorded as “high polyreactivity”.

Consider “QVQLVESGGGLVQAGGSLRLSCAASGRIFFATAMGWYRQAPGNERELVAAITSDGSTDYADSVKGRFTISRDNAKNTVYLQMNSLKPEDTAVYDCNADAYYRYGITMDYWGQGTQVTVSS”, for which the “polyreactivity (PSR sort gate)” value is “low polyreactivity”.

“QVQLVESGGGLVQAGGSLRLSCAASGYNFDHYAMGWYRQAPGKERELVAAISRSAGSTYYADSVKGRFTISRDNAKNTVYLQMTSLKTEDTAVYYCNTVFRWIDRVLGYEYWGQGTQVTVSS”: the “polyreactivity (PSR sort gate)” value was “high polyreactivity”.

Turning to “QVQLVESGGGLVQAGGSLRLSCAASGRTFELNAMGWYRQAPGKERELVAAISWSGGSTYYADSVKGRFTISRDNAKNTVYLQMNSLKPEDTAVYYCAAQYQQGPFVKYYYWGQGTQVTVSS”, the “polyreactivity (PSR sort gate)” value was “high polyreactivity”.

Turning to “QVQLVESGGGLVQAGGSLRLSCAAAGIIFILYTMGWYRKAPGKERELVATISSGGGSTFYADSVKGRFTISRDNAKNTVYLQMHRLKPEDTAVYYCAAFPVFGYSYDYWGQGTQVTVSS”, the “polyreactivity (PSR sort gate)” value is “low polyreactivity”.

With “QVQLVESGGGLVQAGGSLRLSCAASGSTFAKNAMGLYRQAPGKERELVAAISRGGNTYYADSVKGRFTISRDNAKNTVYLQMNSLKPEDTAVYYCAKLPYTRNYLGSLYDYWGQCTQVTVSS”, the “polyreactivity (PSR sort gate)” value is on record as “high polyreactivity”.

Turning to “QVQLVESGGGLVQAGGSIRLSCAASGSTYGTNTMGWSRQAPGKERELVAGITSGGNTNYADSVKGRFTISRDNAKNTVYLQMNSLKPEDSAVYYCAPRYIYYYAYGYNYWGQGTHVTVSS”, the “polyreactivity (PSR sort gate)” value is “high polyreactivity”.

Source of the values: the nanobody polyreactivity screen of Harvey et al. (2022).
